Source: patent US20260001928A1 (CORTERIA PHARMACEUTICALS, priority 2022, published 2026)
*1 amine or outer side, *2 acyl side, *3 side chain or, on linkers, in order; H or OH if unused. Where no end group is shown, it is not given here. Side-chain parts run from the residue outwards. [ ]: non-standard residue; d: D form. The star is where a group is joined. C20 diacid = O=C(O)CCCCCCCCCCCCCCCCCCC(=O)*; γGlu = O=C(O)[C@H](CCC(=O)[*:2])N[*:1]; NMeI = CC[C@H](C)[C@H](NC)C(=O)O; AEEA = NCCOCCOCC(=O)O; Aib = CC(C)(N)C(=O)O

B1: SEQ ID NO 243 (peptide)
peptide: Ac-IVLSLD[dV]PIKLK([γGlu-γGlu-C20 diacid])KILLEQEKQKKQREQAETN[Aib]QILAQV-NH2
SMILES: CC[C@H](C)[C@H](NC(C)=O)C(=O)N[C@H](C(=O)N[C@@H](CC(C)C)C(=O)N[C@@H](CO)C(=O)N[C@@H](CC(C)C)C(=O)N[C@@H](CC(=O)O)C(=O)N[C@@H](C(=O)N1CCC[C@H]1C(=O)N[C@H](C(=O)N[C@@H](CCCCN)C(=O)N[C@@H](CC(C)C)C(=O)N[C@@H](CCCCNC(=O)CC[C@H](NC(=O)CC[C@H](NC(=O)CCCCCCCCCCCCCCCCCCC(=O)O)C(=O)O)C(=O)O)C(=O)N[C@@H](CCCCN)C(=O)N[C@H](C(=O)N[C@@H](CC(C)C)C(=O)N[C@@H](CC(C)C)C(=O)N[C@@H](CCC(=O)O)C(=O)N[C@@H](CCC(N)=O)C(=O)N[C@@H](CCC(=O)O)C(=O)N[C@@H](CCCCN)C(=O)N[C@@H](CCC(N)=O)C(=O)N[C@@H](CCCCN)C(=O)N[C@@H](CCCCN)C(=O)N[C@@H](CCC(N)=O)C(=O)N[C@@H](CCCNC(=N)N)C(=O)N[C@@H](CCC(=O)O)C(=O)N[C@@H](CCC(N)=O)C(=O)N[C@@H](C)C(=O)N[C@@H](CCC(=O)O)C(=O)N[C@H](C(=O)N[C@@H](CC(N)=O)C(=O)NC(C)(C)C(=O)N[C@@H](CCC(N)=O)C(=O)N[C@H](C(=O)N[C@@H](CC(C)C)C(=O)N[C@@H](C)C(=O)N[C@@H](CCC(N)=O)C(=O)N[C@H](C(N)=O)C(C)C)[C@@H](C)CC)[C@@H](C)O)[C@@H](C)CC)[C@@H](C)CC)C(C)C)C(C)C
B2: SEQ ID NO 242 (peptide)
peptide: [NMeI]VLSLD[dV]PIKLK([γGlu-γGlu-C20 diacid])KILLEQEKQKEQREQAETN[Aib]QILAQV-NH2
modifications: N-terminus assumed
SMILES: CC[C@H](C)[C@H](NC)C(=O)N[C@H](C(=O)N[C@@H](CC(C)C)C(=O)N[C@@H](CO)C(=O)N[C@@H](CC(C)C)C(=O)N[C@@H](CC(=O)O)C(=O)N[C@@H](C(=O)N1CCC[C@H]1C(=O)N[C@H](C(=O)N[C@@H](CCCCN)C(=O)N[C@@H](CC(C)C)C(=O)N[C@@H](CCCCNC(=O)CC[C@H](NC(=O)CC[C@H](NC(=O)CCCCCCCCCCCCCCCCCCC(=O)O)C(=O)O)C(=O)O)C(=O)N[C@@H](CCCCN)C(=O)N[C@H](C(=O)N[C@@H](CC(C)C)C(=O)N[C@@H](CC(C)C)C(=O)N[C@@H](CCC(=O)O)C(=O)N[C@@H](CCC(N)=O)C(=O)N[C@@H](CCC(=O)O)C(=O)N[C@@H](CCCCN)C(=O)N[C@@H](CCC(N)=O)C(=O)N[C@@H](CCCCN)C(=O)N[C@@H](CCC(=O)O)C(=O)N[C@@H](CCC(N)=O)C(=O)N[C@@H](CCCNC(=N)N)C(=O)N[C@@H](CCC(=O)O)C(=O)N[C@@H](CCC(N)=O)C(=O)N[C@@H](C)C(=O)N[C@@H](CCC(=O)O)C(=O)N[C@H](C(=O)N[C@@H](CC(N)=O)C(=O)NC(C)(C)C(=O)N[C@@H](CCC(N)=O)C(=O)N[C@H](C(=O)N[C@@H](CC(C)C)C(=O)N[C@@H](C)C(=O)N[C@@H](CCC(N)=O)C(=O)N[C@H](C(N)=O)C(C)C)[C@@H](C)CC)[C@@H](C)O)[C@@H](C)CC)[C@@H](C)CC)C(C)C)C(C)C
B3: SEQ ID NO 241 (peptide)
peptide: Ac-IVLSLD[dV]PIKLK([γGlu-γGlu-C20 diacid])KILLEQEKQKEQREQAETN[Aib]QILAQV-NH2
SMILES: CC[C@H](C)[C@H](NC(C)=O)C(=O)N[C@H](C(=O)N[C@@H](CC(C)C)C(=O)N[C@@H](CO)C(=O)N[C@@H](CC(C)C)C(=O)N[C@@H](CC(=O)O)C(=O)N[C@@H](C(=O)N1CCC[C@H]1C(=O)N[C@H](C(=O)N[C@@H](CCCCN)C(=O)N[C@@H](CC(C)C)C(=O)N[C@@H](CCCCNC(=O)CC[C@H](NC(=O)CC[C@H](NC(=O)CCCCCCCCCCCCCCCCCCC(=O)O)C(=O)O)C(=O)O)C(=O)N[C@@H](CCCCN)C(=O)N[C@H](C(=O)N[C@@H](CC(C)C)C(=O)N[C@@H](CC(C)C)C(=O)N[C@@H](CCC(=O)O)C(=O)N[C@@H](CCC(N)=O)C(=O)N[C@@H](CCC(=O)O)C(=O)N[C@@H](CCCCN)C(=O)N[C@@H](CCC(N)=O)C(=O)N[C@@H](CCCCN)C(=O)N[C@@H](CCC(=O)O)C(=O)N[C@@H](CCC(N)=O)C(=O)N[C@@H](CCCNC(=N)N)C(=O)N[C@@H](CCC(=O)O)C(=O)N[C@@H](CCC(N)=O)C(=O)N[C@@H](C)C(=O)N[C@@H](CCC(=O)O)C(=O)N[C@H](C(=O)N[C@@H](CC(N)=O)C(=O)NC(C)(C)C(=O)N[C@@H](CCC(N)=O)C(=O)N[C@H](C(=O)N[C@@H](CC(C)C)C(=O)N[C@@H](C)C(=O)N[C@@H](CCC(N)=O)C(=O)N[C@H](C(N)=O)C(C)C)[C@@H](C)CC)[C@@H](C)O)[C@@H](C)CC)[C@@H](C)CC)C(C)C)C(C)C
B4: SEQ ID NO 240 (peptide)
peptide: Ac-IVLSLD[dV]PIKLK([AEEA-AEEA-γGlu-C20 diacid])KILLEQEKQKAQREQAETN[Aib]QILAQV-NH2
SMILES: CC[C@H](C)[C@H](NC(C)=O)C(=O)N[C@H](C(=O)N[C@@H](CC(C)C)C(=O)N[C@@H](CO)C(=O)N[C@@H](CC(C)C)C(=O)N[C@@H](CC(=O)O)C(=O)N[C@@H](C(=O)N1CCC[C@H]1C(=O)N[C@H](C(=O)N[C@@H](CCCCN)C(=O)N[C@@H](CC(C)C)C(=O)N[C@@H](CCCCNC(=O)COCCOCCNC(=O)COCCOCCNC(=O)CC[C@H](NC(=O)CCCCCCCCCCCCCCCCCCC(=O)O)C(=O)O)C(=O)N[C@@H](CCCCN)C(=O)N[C@H](C(=O)N[C@@H](CC(C)C)C(=O)N[C@@H](CC(C)C)C(=O)N[C@@H](CCC(=O)O)C(=O)N[C@@H](CCC(N)=O)C(=O)N[C@@H](CCC(=O)O)C(=O)N[C@@H](CCCCN)C(=O)N[C@@H](CCC(N)=O)C(=O)N[C@@H](CCCCN)C(=O)N[C@@H](C)C(=O)N[C@@H](CCC(N)=O)C(=O)N[C@@H](CCCNC(=N)N)C(=O)N[C@@H](CCC(=O)O)C(=O)N[C@@H](CCC(N)=O)C(=O)N[C@@H](C)C(=O)N[C@@H](CCC(=O)O)C(=O)N[C@H](C(=O)N[C@@H](CC(N)=O)C(=O)NC(C)(C)C(=O)N[C@@H](CCC(N)=O)C(=O)N[C@H](C(=O)N[C@@H](CC(C)C)C(=O)N[C@@H](C)C(=O)N[C@@H](CCC(N)=O)C(=O)N[C@H](C(N)=O)C(C)C)[C@@H](C)CC)[C@@H](C)O)[C@@H](C)CC)[C@@H](C)CC)C(C)C)C(C)C
B5: SEQ ID NO 238 (peptide)
peptide: Ac-IVLSLD[dV]PIKLK([AEEA-AEEA-γGlu-C20 diacid])KILLEQEKQKKQREQAETN[Aib]QILAQV-NH2
SMILES: CC[C@H](C)[C@H](NC(C)=O)C(=O)N[C@H](C(=O)N[C@@H](CC(C)C)C(=O)N[C@@H](CO)C(=O)N[C@@H](CC(C)C)C(=O)N[C@@H](CC(=O)O)C(=O)N[C@@H](C(=O)N1CCC[C@H]1C(=O)N[C@H](C(=O)N[C@@H](CCCCN)C(=O)N[C@@H](CC(C)C)C(=O)N[C@@H](CCCCNC(=O)COCCOCCNC(=O)COCCOCCNC(=O)CC[C@H](NC(=O)CCCCCCCCCCCCCCCCCCC(=O)O)C(=O)O)C(=O)N[C@@H](CCCCN)C(=O)N[C@H](C(=O)N[C@@H](CC(C)C)C(=O)N[C@@H](CC(C)C)C(=O)N[C@@H](CCC(=O)O)C(=O)N[C@@H](CCC(N)=O)C(=O)N[C@@H](CCC(=O)O)C(=O)N[C@@H](CCCCN)C(=O)N[C@@H](CCC(N)=O)C(=O)N[C@@H](CCCCN)C(=O)N[C@@H](CCCCN)C(=O)N[C@@H](CCC(N)=O)C(=O)N[C@@H](CCCNC(=N)N)C(=O)N[C@@H](CCC(=O)O)C(=O)N[C@@H](CCC(N)=O)C(=O)N[C@@H](C)C(=O)N[C@@H](CCC(=O)O)C(=O)N[C@H](C(=O)N[C@@H](CC(N)=O)C(=O)NC(C)(C)C(=O)N[C@@H](CCC(N)=O)C(=O)N[C@H](C(=O)N[C@@H](CC(C)C)C(=O)N[C@@H](C)C(=O)N[C@@H](CCC(N)=O)C(=O)N[C@H](C(N)=O)C(C)C)[C@@H](C)CC)[C@@H](C)O)[C@@H](C)CC)[C@@H](C)CC)C(C)C)C(C)C
B6: SEQ ID NO 239 (peptide)
peptide: [NMeI]VLSLD[dV]PIKLK([AEEA-AEEA-γGlu-C20 diacid])KILLEQEKQK[Aib]QREQAETN[Aib]QILAQV-NH2
modifications: N-terminus assumed
SMILES: CC[C@H](C)[C@H](NC)C(=O)N[C@H](C(=O)N[C@@H](CC(C)C)C(=O)N[C@@H](CO)C(=O)N[C@@H](CC(C)C)C(=O)N[C@@H](CC(=O)O)C(=O)N[C@@H](C(=O)N1CCC[C@H]1C(=O)N[C@H](C(=O)N[C@@H](CCCCN)C(=O)N[C@@H](CC(C)C)C(=O)N[C@@H](CCCCNC(=O)COCCOCCNC(=O)COCCOCCNC(=O)CC[C@H](NC(=O)CCCCCCCCCCCCCCCCCCC(=O)O)C(=O)O)C(=O)N[C@@H](CCCCN)C(=O)N[C@H](C(=O)N[C@@H](CC(C)C)C(=O)N[C@@H](CC(C)C)C(=O)N[C@@H](CCC(=O)O)C(=O)N[C@@H](CCC(N)=O)C(=O)N[C@@H](CCC(=O)O)C(=O)N[C@@H](CCCCN)C(=O)N[C@@H](CCC(N)=O)C(=O)N[C@@H](CCCCN)C(=O)NC(C)(C)C(=O)N[C@@H](CCC(N)=O)C(=O)N[C@@H](CCCNC(=N)N)C(=O)N[C@@H](CCC(=O)O)C(=O)N[C@@H](CCC(N)=O)C(=O)N[C@@H](C)C(=O)N[C@@H](CCC(=O)O)C(=O)N[C@H](C(=O)N[C@@H](CC(N)=O)C(=O)NC(C)(C)C(=O)N[C@@H](CCC(N)=O)C(=O)N[C@H](C(=O)N[C@@H](CC(C)C)C(=O)N[C@@H](C)C(=O)N[C@@H](CCC(N)=O)C(=O)N[C@H](C(N)=O)C(C)C)[C@@H](C)CC)[C@@H](C)O)[C@@H](C)CC)[C@@H](C)CC)C(C)C)C(C)C

molecular target: human corticotropin-releasing factor 2a (CRF2a receptor) (human), Q13324; experiment: cell-based or functional assay
Sequence (Q13324 20-411): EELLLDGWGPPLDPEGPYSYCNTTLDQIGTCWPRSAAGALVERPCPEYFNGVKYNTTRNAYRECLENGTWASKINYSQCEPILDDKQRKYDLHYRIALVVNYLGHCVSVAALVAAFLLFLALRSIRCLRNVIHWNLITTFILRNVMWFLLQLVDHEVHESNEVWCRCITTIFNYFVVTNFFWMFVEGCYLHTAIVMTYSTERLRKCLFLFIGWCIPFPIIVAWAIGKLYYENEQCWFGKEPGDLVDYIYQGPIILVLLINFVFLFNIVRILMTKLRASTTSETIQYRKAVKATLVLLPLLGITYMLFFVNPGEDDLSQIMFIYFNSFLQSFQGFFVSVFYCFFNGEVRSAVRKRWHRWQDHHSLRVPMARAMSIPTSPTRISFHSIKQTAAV

Binder	EC50 [nM] (cAMP)
B1	0.13
B2	0.22
B3	0.56
B4	0.22
B5	0.11
B6	0.11
